In patent US20240392013A1, “IL1RAP ANTIBODIES AND USES THEREOF” (STELEXIS THERAPEUTICS, LLC, priority 2021, published 2024):
Substitutions are numbered along the chain they refer to. Each block holds one molecule with its values, some of them ahead of it.

How the values were obtained:
[1] = tested on: IL1-induced NFκB activity; experiment: HEK-BlueIL1β NFκB Reporter Assay; type: cell-based; details: nM range, read-out: IC50, inhibition of IL1-induced NFκB activity
Method: The HEK-Blue IL1β (Invivogen, Cat #hkb-il1b) cell line was used to monitor NFκB activity upon stimulation with IL1β cytokine. In this cell line the secreted embryonic alkaline phosphatase reporter gene (SEAP) is inducibly expressed under the control of IFN-β minimal promoter fused to NFκB/AP-1. Specificity to IL1β cytokine was achieved by blockage of TNF-α response. The cells were maintained in the presence of hygromycin (200 μg/ml) and zeocin (100 μg/ml).
For the functional assay, cells were plated at a density of 5×10^4 cells/well in 96-well plates. Cells were treated with each antibody at the highest concentration of 200 μg/ml followed by seven serial 1:3 dilutions and incubated for 45 minutes at 37° C./5% CO2 in humified incubator. Cells were then stimulated with IL1β ([…]) and incubated overnight at 37° C./5% CO2 in humified incubator. Every treatment was conducted in triplicates. Following, supernatants from each well were mixed with Quanti-Blue substrate (Invivogen, CA USA; Cat #rep-qb1) according to manufacturer's recommendations and secreted SEAP was measured using spectrophotometer at 650 nm.

A549 cells = experiment: IL-1-induced IL-6 secretion, ELISA; type: cell-based, human; details: 66 nM-2 μM, 72 hours, dose-dependent
Method: Methods: A549 cells were seeded on CytoOne® 24 well plate (USA Scientific, Cat #CC7682-7524) at 0.05×10^6/mL and were kept at 37° C./5% CO2 in humified incubator. After 6 hours, the cells were treated with IL-1β (0.5 ng/ml) in the presence or absence of IL1RAP antibodies at 66 nM, 200 nM, 666 nM and 2 μM at 37° C./5% CO2 in humified incubator. Cell culture media was collected after 72 hours and was centrifuged at 4° C. for 5 min. All supernatant samples were analyzed in triplicates. Human IL-6 microplate (R&D Part #890045) was incubated for 2 hours at room temperature with standard, control, or supernatant samples (100 μl) diluted in assay diluent RD1W (100 μl). Samples were aspirated and washed with wash buffer (R&D, cat #895003) four times. Human IL-6 conjugate (200p1) (R&D, cat #890046) was added to each well and incubated for 2 hours at room temperature. Aspiration/wash step was repeated as stated above. Equal volume of substrate color reagent A (R&D, cat #895000) and B (R&D, cat #895001) were mixed, and the substrate solution (200 μl) was added to each well and incubated for 20 minutes at room temperature in the dark. Stop solution (50p1) (R&D, cat #895032) was added to each well and optical density was determined at 450 nm by Cytation™ Cell Imaging Multi-Mode Reader (BioTek).

A431 cells = experiment: IL-36-induced IL-8 secretion, ELISA; type: cell-based, human; details: IL-36γ, 72 hours, dose-dependent
Method: Methods: A431 cells were seeded on CytoOne® 24 well plate (USA Scientific, Cat #CC7682-7524) at 0.05×10^6/mL and were kept at 37° C./5% CO2 in humified incubator. After 6 hours the cells were treated with IL-36γ (0.5 ng/ml) in the presence or absence of IL1RAP antibodies at 66 nM, 200 nM, 666 nM and […]. Cell culture media was collected after 72 hours and was centrifuged at 4° C. for 5 min. All supernatant samples were analyzed in triplicates. Human IL-8 microplate (R&D cat #890462) was incubated for 2 hours at room temperature with standard, control, or supernatant samples (1001) diluted in assay Diluent RD1-85 (1001). Samples were aspirated and washed with wash buffer (R&D Part #895003) for four times. Human IL-8 conjugate (200 μl) (R&D cat #890465) was added to each well and incubated for 2 hours at room temperature. Aspiration/wash step was repeated as stated above. Equal volume of substrate color reagent A (R&D, cat #895000) and B (R&D, cat #895001) were mixed, and the substrate solution (200 ul) was added to each well and incubated for 20 minutes at room temperature in the dark. Stop solution (501) (R&D, cat #895032) was added to each well and optical density of each well was determined at 450 nm with Cytation™ Cell Imaging Multi-Mode Reader (BioTek).

hIL1RAP = target: T1, hIL1RAP (Homo sapiens, UniProt Q9NPH3); experiment: Binding of mAbs to human IL1RAP protein by cell-free ELISA; parameters: extracellular domain His-tagged, Cat #10121-H08H; His; purchased Sino Biological 10121-H08H; details: FIG. 1
T1 sequence (Q9NPH3 21-367 limits assumed): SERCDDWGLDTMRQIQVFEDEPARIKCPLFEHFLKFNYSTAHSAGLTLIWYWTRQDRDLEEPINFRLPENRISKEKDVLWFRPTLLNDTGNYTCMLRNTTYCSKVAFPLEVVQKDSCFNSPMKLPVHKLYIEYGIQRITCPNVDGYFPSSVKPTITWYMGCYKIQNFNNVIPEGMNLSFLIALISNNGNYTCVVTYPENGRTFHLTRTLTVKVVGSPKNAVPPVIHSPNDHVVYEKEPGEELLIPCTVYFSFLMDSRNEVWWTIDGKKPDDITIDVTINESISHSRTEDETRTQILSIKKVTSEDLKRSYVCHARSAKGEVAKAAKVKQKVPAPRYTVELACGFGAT
Method: Recombinant human or mouse IL1RAP proteins (Sino Biological, Beijing, China; Cat #10121-H08H and Sino Biological, Cat #52657-M08H respectively) were diluted in PBS, pH 7.4 at concentration of 1 μg/ml, coated on high-binding 384-well clear plates and incubated overnight at 4° C. Following, plates were washed 3× with 0.05% Tween-20 in PBS, pH 7.5 and then blocked with 1% BSA in PBS for 1 hour at room temperature. After 3× washes, wells were incubated with each antibody at the highest concentration of 100 nM followed by seven serial half log dilutions (in 1% BSA and 0.05% Tween-20 in PBS) for 1 hour at room temperature. Plates were then washed 3× and incubated with […] detection antibody (Medna, TX, USA; Cat #D8212, 0.5 μg/ml diluted in 0.02% Tween-20 in PBS). After 5× washes, Supersignal ELISA Pico substrate (Thermofisher, MA, USA; Cat #37069) was applied to wells and chemiluminescent signal was read on Sprectramax L for 200 ms/well. Similarly, detection with specific κ and λ antibodies was conducted to define light chain isotyping.
Binding of mAbs to human IL1RAP protein was determined by cell-free ELISA. mAbs bound to human IL1RAP and EC50 values were calculated at the nM range.

IC50 [1]: 1.31 nM
B1: 74804_12A21B: anti-IL1RAP mAb; VH SEQ ID NO:6, VL SEQ ID NO:23, κ light chain (antibody, V domains shown)
VH: QVQLLQSGAEVKKPGSSVKVSCKASGGTFSIYAIDWVRQAPGQGLEWMGGIIPIFGTANSAQKFQGRVTITADKSTSTAYMELSSLRSEDTAVYYCARNGATSDAFDMWGQGTMVTVSS
VL: EIVLTQSPGTLSLSPGERATLSCRASLSVSSNYLAWFQQRPGQAPRLLIHGVSRRATGIPDRFSGSGSGTDFTLTISRLEPEDFAVYYCQQYGSSPLTFGGGTKVEIK
modifications: 74804_12A21B VH and 74804_29D13A VH; 74804_12A21B VL
IL-1-induced IL-6 secretion (A549 cells): inhibited
IL-36-induced IL-8 secretion (A431 cells): inhibited
Binding to human IL1RAP (hIL1RAP): bound to human IL1RAP in a dose dependent manner

IC50 [1]: 2.29 nM
B2: 74804_43F04A: anti-IL1RAP mAb; VH SEQ ID NO:7, VL SEQ ID NO:22, κ light chain (antibody, V domains shown)
VH: B1 VH with A58E, K63N, V68I, S77N, M108I, S118F
VL: B1 VL with H50Y
modifications: 74804_43F04A VH; 74804_07K10A VL, 74804_29D13A VL and 74804_43F04A VL
IL-1-induced IL-6 secretion (A549 cells): inhibited
IL-36-induced IL-8 secretion (A431 cells): inhibited
Binding to human IL1RAP (hIL1RAP): bound to human IL1RAP in a dose dependent manner
